This data set in a line: label from the status in PepcDB records.
As for “MRQLTAAALYENLFGPLALAYAPGRPFEWRSNGRAWRARGRLGAFGRPRLEPGTVECRTGRAWRQASIADAVAALPGAPQEHARLRHELNQTEALLRWNRVNAPRHDRRRMSFSALDAAIDEGHPYHPCFKSRTGFDEHDHRCYGPEADGTFQLDWLGVARELLHLSFPSTEASFWKRELGAAGLADIEARAAALGLEHDRFGLMPIHPWQWRDLSADRLRPLLQSGRIHYLGAAGDRYRASQSVRTLSNAQAPHRSSVKLALGIVNTSTRRNIEAHSVATAPVLSRWLDTILDSDPLFRLRYRLDIVSEFAGAIVDRDGPLGGEIAAIWRESVESKLADGESAVPFNALMAIEADGLPFIDPWLQRYGLKPWLDRLVEVAVLPVWRLLVVHGIATEAHGQNMVLVHRDGWPERLILRDFHDSLEFVPDFLADPNLAPDFLTLDPRYRRALPNQYYWMERPEDLRDLFVDCLFVFNLSEISHLVQSFYGISEGAFWHRVSLRLAADIAEHGLGERVARLGFGTPEIVIESLLARKLGLSGDALQHNVPNPLAAVVPLAREYA”, the protein production result was “failed”. For “MRRAEIPMNPLINHPAILFVVMLVVMSSATALGALVLRRIRPLPAEVKDDFGIVQGATLTLLALLIGFTLSMAVGRYDQRKNLEEEEANAIGTEYLRADLIEGPEAEQVKALLVRYLDQRILYYRTRDSAQLQEIEAATSQIEDEMWKLMRSAARAKPTPITGLVVSGMNDVINSQGYAEAAWINRIPVSAWGLMIVIAFFSSMMQGYGARSENAKIILMLVLPFTVSLSLALISDIDSPRGGLIRVLPQNLLSLQASLKR” the value was “failed”; for “MRRAGYLHLYGLNLVFDRVGKGPPVLLVAEEASRWPEALPEGYAFYLLDLPGYGRTEGPRMAPEELAHFVAGFAVMMNLGAPWVLLRGLGLALGPHLEALGLRALPAEGVEVAEVLSSKLSYGNIDLGGNL”, “not failed”; for “MRRELLLEKIETYKAIMPWYVLDYYQSKLAVPYSFTTLYEYLKEYKRFFDWLMDADLTQAPKIADIDLSTLEHLTKKDLEAFVLYLRERPSLNTYSTKEGLSQTTINRTLSALSSLYKYLTEEVENDQGEPYFYRNVMKKVSTKKKKETLASRAENIKQKLFLGDETLAFLDYVDKEYEQKLSNRAKSSFRKNKE”, “failed”. The same measure for “MRRFNTSQNKNERNLFNDYIKNEDELYDERDDEGINKEPISLKADVNNNFFPIDQIHSTYFLCNNLNNDNTEKEINEHISFEKIQDHEKEEKKKIFLFNLSDNQKKQIENLKINKIIQNEMYLKKNKILKYIIHIFISDILKEKPNDVYDYASNYFTQPQFKMYILEKLKLRINK”: “failed”.

With “MRRGLVIVGHGSQLNHYREVMELHRKRIEESGAFDEVKIAFAARKRRPMPDEAIREMNCDIIYVVPLFISYGLHVTEDLPDLLGFPRGRGIKEGEFEGKKVVICEPIGEDYFVTYAILNSVFRIGRDGKGEE”, the protein production result is reported as “not failed”.

Take “MRRHTSSLDDQSLWRVALDYARDAAVIIDDGGHICYVNQAAERIWGIGRADLVGSHSDCLGVDAIQPEPVAGSHLTNAASDLPLAIDITSRDNRSITAELTRSTIRVDGLNYTMLTVRDVT”: the protein production result is “failed”. With “MRRILGPVLAAHYLAAFTALGMPLFLPQVLAELAPSAAVGWSGVLYVLPTLCTALTASTWGRWADRNGRKRSLLRAQLGLALGFAIAGFAPSLTWLVIGLIVQGTCGGSLAAANAYLASQPQAGPLARALDWTQYSARLAMVSAPALLGLALALGPAQSLYRALALLPLIAFALTWRLPADQPAAREPAAGTPATSLKHAASSPASPRTVAATSWPALLLAQFLFCFAMVVTFPYFIPYALARGAGHDALAGLLYSLPHLVYLVVLPWWRRGDGEAWLVPGLALFAAACVWQALLHDALALAAARLLFGFGMLFGLRGLNRSLAHIASGHSAGRLFGRFDACGKWAGVFAGAAAGALAQASGPATPFLAAALAAAAAALTVLVRFPSRRTADVAAHDA”, the protein production result is reported as “failed”. The same measure for “MRRLPPWMLGGASTGEAAARNGSQPEAPKTKAEKRPKRVQKTKEKDLNLKSDEPKRVPRKIREEAKRSPEVIQSVTVPEDDDLTVDDLLSFANEVM”: “failed”; for “MRRLQREIRTYDEEQLKQVREELTTYDLMTRNALLQTAHDLRAKVEQEAVPEGEQATTYLKAVVDDRRHELSVFLPATQASAALENVRRHLVNQILSIGGKAKKLETERCAAERHLKRPTVEVVQREHDAHLRRLRQWQEVQSRFQTWHTYEQAYARWPDLAAAFDSGPTEAATRVATELHKRTLATMQEQDRWREFLRQATEQEHQRQLTPPEDDLPEDDLEEDTWAAAESSEPSGSLFSRLGHTLSRLMAPPGPDEVPSAATAPRETDGWDDVQPQIAPDPRSTVPGLWDDADDLTPVSPVAPARPAPSPPVYDAAAVPALDIDFSAAPRRSRTPAEQMPDPFARAARVRSARRTTTPLVPVPQQLDAAEMPAPRPARTPPGRPATAGNVAPPSAPRTARPPSPTLADFDLWDDEEDMPFGPPATPAPAAASVPQMVPTPRAAARPTPRPVSSPGPSPVPVSPASASVSHAAPWEEPAAGRPAPAPSGVSRRGATRLALPSEQLLDPLPNGARNTVQMDLDAERRGDMINETLRQFGLQAKVVDLARGPTVTRYEIEPAPGEKISRIASLSNDLARALAVGGVRVEAPVPGKSVIGLEVPNAEREPVTFHQATANPAFKNTRAKLPIILGKSIDGSMMVGDLAKMPHLLVAGSTGSGKSVCVNTLITSLLYRYLPTELRFVMIDPKMVELTPYDGIPHLVRPVVTNPADAAGVLLGAVAHMERRYKMMSQVGAKNLEQFNAKMRAVGEVELPHLVIIIDELADLMITSPKEVESAIMRLAQMARATGMHLILATQRPSVDILTSLIKVNIPARIAFAVSSSHDSRTILDTTGAERLTGMGDMLFYQPGLVKPLRLQGPYISEAESARITDELRRMMFDDDFIEAYGADFEGMISSSGPGGDRSQLDFSDPLLRQAALVCIEEGQGSVSRLQRRLSVGHARAGKLMDLLEAMNIVGPHQGSKPREVLIHEADLPEYFGK”: “failed”; for “MRRRDARPQGTGTAGPTGARHGEDADGTPRHMNAPKGLPLWLKIVTGVVSVALVAGVAFAAFWFIRLQTNITKAPLSAGETRNAGDPLVDDKTDRLQILILGSDTRDGKNAEYGSTEDSTGYGHSDVMMLLDISADNKRVNVLSFPRDLLVDVPQCTDRTNNQTFPARSGVMINEAMAEAGIGCAVDTVNQLTGLEIDHFMMADFNAVKELSHAVGGVNVCVSDPVFDPDSRLRLAKGDSLVEGEQALAFLRTRHAFGDGGDLGRIKGQQAFLSSLTRKLKDEGTLGNPQRLLQIADVVTQNLTVDEGLASVPSLLTIGGRLKDIDVSKVAFVAVPTQAAAADINRLELIEPQASQLFAALRADLDLTTPGATAPPAPSESPAPQPTATTPPAPAYDKAIQPVAVANGSGVATRAQELMTVLTGNGFAQTVSYLANPVDQTVLYYGPGFADVAADVATLFGIPAAQVQEAPGVAGVQLYVGTDFSSGTAYGAASVPSDVVNQTANDAVCQQVNPLYIDQQ”: “failed”. For the sequence “MRRRKAPVREVLGDPVYGNKVVTKFINKMMFDGKKSVAEKIIYKAFNKIEEKSGEKGIEVFEKALERVRPLVEVRSRRVGGATYQVPVEVRASRQQSLSIRWILEATRKRNERMMVDRLANELMDAASDKGAAFKKKEDVHKMAEANKAFAHYRW”, the protein production entry is listed as “failed”.

For the sequence “MRRRRRRDGFYLAPDFRHREAEDMAGVFDIDLDQPEDAGSEDELEEGGQLNESMDHGGVGPYELGMEHCEKFEISETSVNRGPEKIRPECFELLRVLGKGGYGKVFQVRKVTGANTGKIFAMKVLKKAMIVRNAKDTAHTKAERNILEEVKHPFIVDLIYAFQTGGKPYLILEYLSG”, the protein production result was “not failed”. The same measure for “MRRSMRMNMSVASNIHSLLARLLPERVIAPPAPAGRRQRLFSGVGLPSQRSLLVNRLDEANDLQAVYVDLRRQALQGSVSALNDLGWIWLNGKYWRADTVLAGHLLRMAALQGNAAAWFNLGQQHYFGKGIDPSYVQAAECYRQAFDRGMLHAAAALGDLYEEEVCDGDLEWQVDLVQAYQWFLRGAEQGEARCRFEMGYRLMHGLHVEANLKAALYWLELAAAAGVVQAAEELAVHFSSRDAVRYQEWRDRAVQMGSTLALTMKLEDQIHP”: “failed”; for “MRRTVRYILATSNPMGDLEALEKFVKLAPDTGADAIALIGNLMPKAAKSRDYAAFFRILSEAHLPTAYVPGPQDAPIWEYLREAANVELVHPEMRNVHETFTFWRGPYLVAGVGGEIADEGEPEEHEALRYPAWVAEYRLKALWELKDYPKIFLFHTMPYHKGLNEQGSHEVAHLIKTHNPLLVLVAGKGQKHEMLGASWVVVPGDLSEGEYSLLDLRARKLETGNVR”: “not failed”; for “MRSDGRKEDQLRPVSIQRDFLEYPEGSCLISFGKTKVICTASVIENVPNWLKGKGQGWITAEYSMLPRATQQRTIRESVQGRIGGRTHEIQRMIGRAMRTAVELTKIGERTIWVDCDVIQADGGTRTAAITGAFVAVADAIIKLHKEGIIEETPIKDFVAAVSVGIVNDRILLDLNFEEDSAAQVDMNVVGTGSGRLSEVHTMGEEYSFTKDELIKMLDLAQKGINELIELQKKLYVIQDGKWERSELKEVSSTT”: “not failed”. For “MRSGKIASEEYKDNPLTSCGTVRYWAAAKAAAGRHEETFTASTLSDLLEQVRQKYEGNAAMLAVLARSSFLVNATPVGVRPHHEVVLEPGWIVEVLPPFAGG” the value was “failed”; for “MRSIRLRVDWRATASLLGTVLKYLAVALLVPLTVAVIYWEDIWVFAVAIAITVTLGFTLERLDPEPDMGPAEALLLVTVSWLAVAMVGSVPYLLAGYGTASTLANPVNALFESMSGFTTTGATVMGEISTDQHSHALLLWRQLTQWLGGMGIIVLMIAILPELAVNGAQLMKTEAPGPELQKLTPRIAETARVLWLVYFGFTVLLAALLYGLHLAGFAPNMHLYNAVAHAFTTLPTGGFSPESDSIAAFSAVVQWVIIPFMVIAGTNFALFWHLLDGDIRTLLNDAEFRVYAGAIAVLSAILAALLYGGAAPAQELGGTTAGNTENALRQAAFQVGSLMNSTGFATSDFAQWGPTAQALLLFTMFVGGSAGSTGGGIKVIRWLVVMKAIRRELSVTARPEAVKPVRLGGYVVDEDVVRGIMVFTLLYLALFGAATVFFAVDSLRVGYELSVLEAMSASIATLGNIGPGFGMLGPFGSYLGFPPETKIVMVFLMWVGRLEIIPVLAVFTGAFWKR”, “failed”; for “MRSNHLPCWHTGPLSTLNVRPHLARAWHPLVCIYQRCLATALPTAPAVDSYCISTEIPYYDLVGRLGGKGPSKQTFTMQMLFHKKQRTPLGFCDGLDNVFVGFGSKDEKGCRPPKYHASYAPYYPIHKAASMGDVNTVKSFVERGVFAMEQTDWKYRTALHFACVYGHPEVVTLLVESSCEISPKDIKDATPLIKASQCRQTECLNILLKHGADPNIMDCSDNTALHYAVYNGDIETATKLLEYKANIEAINENKITPLLLALKQNKEKMAEFLIHNGANAKTCDFLGRSSLMYAVRCGSELIIKLLLQRDIDTFKQDVFGWTAKRYAVESKSRVRKLLIDYDEEELRQRCSVPKLSSSSLKELCLDSHYDRNTNISNTGKTREKFSQCTLWEEEHPILPTVKVKDSPRSEAVEKAEARPSKSESNEEDTCTTPTLPTTKVKDPSQSEAVEKAEARPSKSGKLTV”, “failed”. The same measure for “MRSNYAKKLVAGTLVASMTITASMPLFADELATEIPSAGAAVIVEDYINNSGKETDIEKLLPTEATDSTATANETTKTENQTEKTQTSNTATSSEDKLFANIAITKVSGGAEDYVNVRKKPTTESKVVGKIYNNSGAKILEKTNNGWYKIVSGNCTGYIKSDFFVTGSSAKSRALDNGYVQAEAKDAIHVRAEASTNSKVVTNVYKNETYTIKKFDKTGEWIKVKIKAGVSGWISAQYANVNINMETAITRKIEKAKIKKEREAAKAAAKAAAEEEARKQAEQQEQQASNDNSQSSSDGTYSNSSNSSSRSNYSNSSSSSSSSSSSSSSSSSKKSHSSSSSSSSGSGTGAAIVAYAKQFLGNPYVYGGASLTNGTDCSGFTMSVYAHFGYGLSRSSYTQVNNGRAVSMSSLQPGDLLFYKYGGSTISHVAIYIGGGQIIHASTEETGIIISGMGSPCAARRIIG”: “failed”.

Source of the values: a protein production outcome set (Wang et al. 2014).
